Measured values: US20260275312, “CRISPR NUCLEASE POLYPEPTIDES AND GENE EDITING SYSTEMS COMPRISING SUCH” (ARBOR BIOTECHNOLOGIES, INC., published 2026)

Target: T1, Nuclease S (synthetic construct)
T1 chain: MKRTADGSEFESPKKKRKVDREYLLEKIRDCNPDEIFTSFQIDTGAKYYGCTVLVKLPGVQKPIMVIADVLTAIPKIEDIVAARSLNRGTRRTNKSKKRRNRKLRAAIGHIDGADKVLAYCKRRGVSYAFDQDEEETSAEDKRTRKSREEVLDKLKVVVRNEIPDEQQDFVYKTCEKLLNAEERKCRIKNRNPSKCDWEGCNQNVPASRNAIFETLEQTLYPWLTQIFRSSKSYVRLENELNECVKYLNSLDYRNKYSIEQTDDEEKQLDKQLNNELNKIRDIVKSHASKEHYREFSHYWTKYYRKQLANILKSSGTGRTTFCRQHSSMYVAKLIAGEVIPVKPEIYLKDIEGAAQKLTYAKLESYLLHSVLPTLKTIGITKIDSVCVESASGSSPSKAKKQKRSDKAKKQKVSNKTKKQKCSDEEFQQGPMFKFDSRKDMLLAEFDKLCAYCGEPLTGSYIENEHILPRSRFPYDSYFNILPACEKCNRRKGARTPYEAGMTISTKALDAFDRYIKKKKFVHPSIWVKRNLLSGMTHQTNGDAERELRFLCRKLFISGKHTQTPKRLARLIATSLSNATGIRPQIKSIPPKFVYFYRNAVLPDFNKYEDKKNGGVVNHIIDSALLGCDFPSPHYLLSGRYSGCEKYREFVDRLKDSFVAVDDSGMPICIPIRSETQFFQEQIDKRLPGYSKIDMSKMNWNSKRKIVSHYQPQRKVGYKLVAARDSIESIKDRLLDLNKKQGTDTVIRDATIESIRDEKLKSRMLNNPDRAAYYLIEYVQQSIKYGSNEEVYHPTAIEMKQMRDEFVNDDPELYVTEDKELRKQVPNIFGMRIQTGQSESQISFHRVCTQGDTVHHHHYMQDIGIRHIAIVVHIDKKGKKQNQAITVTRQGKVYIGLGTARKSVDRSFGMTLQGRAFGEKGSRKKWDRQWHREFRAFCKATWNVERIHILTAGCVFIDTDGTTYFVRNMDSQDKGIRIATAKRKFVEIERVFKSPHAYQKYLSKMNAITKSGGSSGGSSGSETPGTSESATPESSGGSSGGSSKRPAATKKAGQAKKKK
Test: cell_activity; HEK293T; PAM AACC 3'; very low
Settings: tags: N-term SV40 NLS, XTEN linker + C-term nucleoplasmin NLS

B1: S AAVS1-T7 RNA guide ; AAVS1-T7 target (S) (ssRNA ; dsDNA)
RNA: GGCUAUAAUCCAUGCUGACCGUUGUAUUCGGAUGGGAGUAAAAGGUUGAGUACACCUGGAAACAAAACGACAUAAAGGUGUUCUCCCAUCUGUGUACAAAGAGCAGAUAUAUGAGUUGAUAAGUAAUAUGUUGCACGUAUGGACUUUGACAGUCUGUACCUCUGCGUGAAAGACAUAUUGCGUUAUUCAUAUAUCUGUGAGUCUGUUCUAAAUUUAAAGGUUUAGGGAA
DNA 1: GGCTATAATCCATGCTGACC
DNA 2: GGTCAGCATGGATTATAGCC
Q: For B1, which activity is on record?
A: 0.0048 indel ratio
